The assay addresses LILRB4 on human monocytic AML THP-1 cells (human) (UniProt Q8NHJ6). The assay is described as follows: flow cytometry, anti-His tag-APC alone on wild-type THP-1 cells (negative control); lilrb4-knockout THP-1 cells in the same panel: KO 0.9% [panel e]. For orientation: In flow cytometry, cells or beads pass a laser one at a time.

Sequence of LILRB4 on human monocytic AML THP-1 cells (human) (Q8NHJ6 22-448): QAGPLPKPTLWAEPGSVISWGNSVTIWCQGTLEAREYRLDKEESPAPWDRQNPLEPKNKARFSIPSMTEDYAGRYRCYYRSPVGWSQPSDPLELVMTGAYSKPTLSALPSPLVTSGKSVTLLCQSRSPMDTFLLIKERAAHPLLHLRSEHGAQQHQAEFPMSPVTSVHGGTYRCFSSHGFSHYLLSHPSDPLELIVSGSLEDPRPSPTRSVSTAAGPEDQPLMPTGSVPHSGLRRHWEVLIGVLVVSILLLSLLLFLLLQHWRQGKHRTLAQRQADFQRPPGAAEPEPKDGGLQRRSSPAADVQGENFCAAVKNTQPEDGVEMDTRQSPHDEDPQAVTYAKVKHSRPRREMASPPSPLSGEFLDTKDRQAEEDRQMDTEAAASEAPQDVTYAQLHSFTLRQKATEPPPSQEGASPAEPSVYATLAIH

As for Ctrl (anti-His tag-APC) (antibody), the % of cells in the positive gate was determined as 0.4%.

Values taken from patent US20210349096A1.
